# Data as given in patent US20040063148A1.
# How the values were obtained:
# Gαt-rod peptide = test system: T1, Gαt-rod peptide
# T1 sequence: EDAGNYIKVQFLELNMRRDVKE
# Bovine brain calmodulin = Bovine brain calmodulin (UniProt P62157)
substance,measurement,setting,value
PDE1A1 of bovine taste tissue (PDE of anion exchange fraction 11),"PDE activity of fraction 11 (1 µM cGMP as substrate), 100 µM peptide",Gαt-rod peptide,The PDE activities of both fractions 6 and 11 are stimulated by the presence of the Gαt-rod peptide
PDE4 of bovine taste tissue (anion exchange fractions 19-23),"cAMP hydrolyzing activity of fractions 19-23, 1 mM CaCl2 and 4 µg/ml CaM",Bovine brain calmodulin,The cAMP hydrolyzing activity of this forth peak is neither Ca^2+/CaM nor Gαt-rod peptide dependent
same,"cAMP hydrolyzing activity of fractions 19-23, 100 µM peptide",Gαt-rod peptide,The cAMP hydrolyzing activity of this forth peak is neither Ca^2+/CaM nor Gαt-rod peptide dependent
PDE1A7 of bovine taste tissue (PDE of anion exchange fractions 6-7),"PDE activity of fraction 6 (1 µM cGMP as substrate), 100 µM peptide",Gαt-rod peptide,The PDE activities of both fractions 6 and 11 are stimulated by the presence of the Gαt-rod peptide
